Measurements reported in the supplement of paper PMC9170038.

Test system: K4 kissing-loop RNA reporter
Experiment: apparent KD of K4 kissing-loop reporter; higher = weaker reporter binding
Details: Eterna round: R107
Experimental: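 RNA-MaP round R107: designed RNA switches with theophylline, tryptophan, arginine or FMN aptamers are transcribed on-chip within common flanks. They are titrated with a labelled K4 kissing-loop RNA reporter in RNA-MaP buffer (100 mM Tris pH 7.5, 80 mM KCl, 4 mM MgCl2), without ligand or with the indicated ligand. Median apparent KD per design.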

[1] = input ligand: theophylline 20 uM
[2] = input ligand: tryptophan 2.4 mM
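Note: bound reporter read as fluorescence of individual clusters on recovered sequencing chips by microscopy, with normalized cluster intensities fitted with a binding model.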

Sequence | apparent KD of K4 kissing-loop reporter (input ligand: FMN 200 uM) | apparent KD of K4 kissing-loop reporter (input ligand: arginine 13.2 mM) | apparent KD of K4 kissing-loop reporter (input ligand: none) | apparent KD of K4 kissing-loop reporter [1] | apparent KD of K4 kissing-loop reporter [2]
UGUACCGAGUCAGGAUAUGGCGUCGAAAGACGAAUCUUAGUGAUGUUAGGGAUCUGCGAAAGCAGUUCAGAAGGGACUUGGUACU [FmnBS 26 U37+U67] | 349 nM | 427 nM | 506 nM | 556 nM | 515 nM
UGUACCGAGUCAGGAUAUGGCGUCGAAAGACGAAUUCUAGUGAUGUUAGGGAUCUGCGAAAGCAGUUCAGAAGGGACUUGGUACU [FmnBS 26 U36+U67] | 243 nM | 288 nM | 342 nM | 470 nM | 360 nM
UGUACCGAGUCAGGAUAUGUCGUCGAAAGACGAAUCCUAGUGAUGUUAGGGAUCUGCGAAAGCAGUGCAGAAGGGACUUGGUACU [FmnBS 26 U20+G67] | 235 nM | 182 nM | 216 nM | 226 nM | 207 nM
UGUAUCAUCUAAGGAUAUAUCAUGUGAUGCACCGAGUAUCGCAUCAAUUCUGAGUGAUGUUCAGGUAUAGAAGGUAGAUGAUGCA [FMN B SS t2] | 207 nM | 178 nM | 212 nM | 259 nM | 228 nM
UGUAUGGACUGAAGGAGCGCUAGGAAAGUGAGUGAUGUUCAUAUAAAAGUAUAAAGGGUUUGGCAGGUAGGUCGCAGUCCAUACU [KL-SSArg B5] | 225 nM | 344 nM | 234 nM | 270 nM | 135 nM
UGUAUGUGAUUUGAUACCAGACCAGUUGGUGGUAUAUGAGUGAUGUUUAUGUUGGUUUGGGUCCCUUGGCAGCAAAUCGCAUACU [KL-SSTheoB11] | 591 nM | 307 nM | 491 nM | 356 nM | 386 nM
UGUAUGUGAUUUGAUACCAGACCAUCUUGUGAGAAAUGAGUGAUGUUUAUUUUGGUUUGGGUCCCUUGGCAGCAAAUCGCAUACU [KL-SSTheoB24] | 507 nM | 356 nM | 505 nM | 419 nM | 439 nM
